According to publication PMC4012256:

Legend:
[1] = target: αVβ3(N339S) transiently expressed on HEK293T cells (human) (UniProt P06756)
[2] = target: wild-type αVβ3 stably expressed in K562 cells (K562-αVβ3) (human) (UniProt P06756); experiment: flow cytometry on cells
[3] = target: αVβ3(N339S) transiently expressed on HEK293T cells (human) (UniProt P06756); experiment: flow cytometry on cells

Sequence of 10th type III RGD-domain of wild-type fibronectin (wtFN10) (domain or fragment) (P02751 45-2432): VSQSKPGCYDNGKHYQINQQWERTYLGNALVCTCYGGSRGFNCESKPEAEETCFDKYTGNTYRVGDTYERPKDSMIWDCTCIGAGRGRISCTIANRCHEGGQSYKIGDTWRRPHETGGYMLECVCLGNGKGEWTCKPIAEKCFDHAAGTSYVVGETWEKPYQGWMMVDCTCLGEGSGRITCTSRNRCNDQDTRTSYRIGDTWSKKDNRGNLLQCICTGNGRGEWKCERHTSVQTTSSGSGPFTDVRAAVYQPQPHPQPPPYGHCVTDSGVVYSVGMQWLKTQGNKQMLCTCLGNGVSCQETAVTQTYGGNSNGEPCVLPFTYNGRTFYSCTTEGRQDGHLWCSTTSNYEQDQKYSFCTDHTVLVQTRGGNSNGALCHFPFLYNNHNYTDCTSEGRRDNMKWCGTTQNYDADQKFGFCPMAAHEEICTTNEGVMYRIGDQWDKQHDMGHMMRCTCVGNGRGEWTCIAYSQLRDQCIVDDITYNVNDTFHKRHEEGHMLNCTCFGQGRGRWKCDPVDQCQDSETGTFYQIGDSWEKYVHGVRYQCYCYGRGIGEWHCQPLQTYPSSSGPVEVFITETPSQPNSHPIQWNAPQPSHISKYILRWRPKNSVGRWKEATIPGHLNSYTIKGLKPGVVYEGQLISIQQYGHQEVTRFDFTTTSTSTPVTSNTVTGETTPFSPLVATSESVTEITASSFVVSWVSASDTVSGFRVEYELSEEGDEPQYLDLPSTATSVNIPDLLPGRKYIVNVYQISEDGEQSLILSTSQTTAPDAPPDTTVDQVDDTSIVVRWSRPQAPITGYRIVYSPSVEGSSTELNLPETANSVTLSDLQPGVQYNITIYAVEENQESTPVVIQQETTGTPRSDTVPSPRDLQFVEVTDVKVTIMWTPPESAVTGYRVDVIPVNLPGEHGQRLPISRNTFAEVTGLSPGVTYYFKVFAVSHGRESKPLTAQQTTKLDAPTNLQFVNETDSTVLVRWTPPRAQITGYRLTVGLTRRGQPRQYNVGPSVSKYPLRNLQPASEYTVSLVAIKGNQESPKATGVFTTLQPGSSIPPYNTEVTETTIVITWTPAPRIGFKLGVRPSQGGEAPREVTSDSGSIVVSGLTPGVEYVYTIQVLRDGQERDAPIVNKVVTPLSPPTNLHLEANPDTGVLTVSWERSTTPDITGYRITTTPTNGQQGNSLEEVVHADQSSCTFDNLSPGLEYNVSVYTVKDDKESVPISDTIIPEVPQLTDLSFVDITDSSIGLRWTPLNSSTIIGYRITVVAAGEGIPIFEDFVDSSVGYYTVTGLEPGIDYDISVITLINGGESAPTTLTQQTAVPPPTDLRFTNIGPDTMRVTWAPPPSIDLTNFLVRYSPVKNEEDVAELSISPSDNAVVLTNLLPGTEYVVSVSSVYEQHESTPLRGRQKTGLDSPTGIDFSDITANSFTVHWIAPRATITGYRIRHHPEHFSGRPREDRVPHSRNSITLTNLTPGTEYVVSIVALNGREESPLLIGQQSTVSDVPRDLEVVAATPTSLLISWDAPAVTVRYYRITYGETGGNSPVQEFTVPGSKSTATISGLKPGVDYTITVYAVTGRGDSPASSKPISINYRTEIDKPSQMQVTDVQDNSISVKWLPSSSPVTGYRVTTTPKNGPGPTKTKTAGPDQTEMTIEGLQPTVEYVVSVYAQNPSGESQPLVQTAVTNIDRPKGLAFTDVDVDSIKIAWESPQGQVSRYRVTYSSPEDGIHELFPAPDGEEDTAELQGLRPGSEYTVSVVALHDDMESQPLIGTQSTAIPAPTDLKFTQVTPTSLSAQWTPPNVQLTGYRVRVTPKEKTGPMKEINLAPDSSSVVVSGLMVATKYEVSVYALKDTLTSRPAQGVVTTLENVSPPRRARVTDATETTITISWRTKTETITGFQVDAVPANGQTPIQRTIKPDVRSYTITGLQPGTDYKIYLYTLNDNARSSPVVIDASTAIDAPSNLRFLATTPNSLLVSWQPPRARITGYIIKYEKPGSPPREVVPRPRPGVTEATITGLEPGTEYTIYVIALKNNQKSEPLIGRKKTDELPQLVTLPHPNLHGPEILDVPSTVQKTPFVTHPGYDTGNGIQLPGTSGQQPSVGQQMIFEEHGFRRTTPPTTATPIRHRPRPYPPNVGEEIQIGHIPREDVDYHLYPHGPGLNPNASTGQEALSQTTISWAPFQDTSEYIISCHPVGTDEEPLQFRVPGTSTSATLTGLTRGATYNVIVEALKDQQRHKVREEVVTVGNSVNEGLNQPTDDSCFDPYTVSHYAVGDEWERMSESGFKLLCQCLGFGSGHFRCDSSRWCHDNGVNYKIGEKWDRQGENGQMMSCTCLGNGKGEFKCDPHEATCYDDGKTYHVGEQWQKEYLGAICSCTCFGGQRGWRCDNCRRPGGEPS
Sequence of αVβ3(N339S) transiently expressed on HEK293T cells (human) (P06756 31-1048, chain 1 of 2): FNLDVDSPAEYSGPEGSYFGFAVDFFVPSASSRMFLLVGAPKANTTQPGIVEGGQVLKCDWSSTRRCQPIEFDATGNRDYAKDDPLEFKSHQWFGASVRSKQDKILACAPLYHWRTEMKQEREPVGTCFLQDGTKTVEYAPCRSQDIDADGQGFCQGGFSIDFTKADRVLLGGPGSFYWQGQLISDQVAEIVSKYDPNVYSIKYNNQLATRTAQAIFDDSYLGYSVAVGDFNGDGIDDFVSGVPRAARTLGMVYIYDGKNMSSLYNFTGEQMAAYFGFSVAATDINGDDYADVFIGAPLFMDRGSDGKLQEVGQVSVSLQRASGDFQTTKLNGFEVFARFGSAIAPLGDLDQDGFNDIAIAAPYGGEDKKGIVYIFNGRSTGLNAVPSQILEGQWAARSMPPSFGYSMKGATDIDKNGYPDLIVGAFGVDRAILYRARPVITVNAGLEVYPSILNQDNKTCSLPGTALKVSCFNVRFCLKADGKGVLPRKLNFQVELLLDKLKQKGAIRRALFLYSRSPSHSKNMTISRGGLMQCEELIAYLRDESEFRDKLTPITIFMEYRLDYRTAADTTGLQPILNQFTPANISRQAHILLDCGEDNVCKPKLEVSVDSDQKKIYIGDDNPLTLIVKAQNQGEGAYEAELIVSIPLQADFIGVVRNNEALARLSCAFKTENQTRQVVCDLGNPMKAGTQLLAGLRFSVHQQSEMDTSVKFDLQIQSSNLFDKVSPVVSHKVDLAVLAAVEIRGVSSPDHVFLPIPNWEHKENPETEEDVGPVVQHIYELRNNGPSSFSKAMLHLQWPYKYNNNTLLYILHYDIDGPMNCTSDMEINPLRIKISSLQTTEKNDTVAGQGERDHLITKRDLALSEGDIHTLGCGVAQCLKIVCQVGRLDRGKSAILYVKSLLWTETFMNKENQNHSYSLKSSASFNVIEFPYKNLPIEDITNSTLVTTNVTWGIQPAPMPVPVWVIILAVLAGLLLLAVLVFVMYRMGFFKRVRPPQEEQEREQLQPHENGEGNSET
Sequence of αVβ3(N339S) transiently expressed on HEK293T cells (human) (P05106 27-788 N339S, chain 2 of 2, further chain): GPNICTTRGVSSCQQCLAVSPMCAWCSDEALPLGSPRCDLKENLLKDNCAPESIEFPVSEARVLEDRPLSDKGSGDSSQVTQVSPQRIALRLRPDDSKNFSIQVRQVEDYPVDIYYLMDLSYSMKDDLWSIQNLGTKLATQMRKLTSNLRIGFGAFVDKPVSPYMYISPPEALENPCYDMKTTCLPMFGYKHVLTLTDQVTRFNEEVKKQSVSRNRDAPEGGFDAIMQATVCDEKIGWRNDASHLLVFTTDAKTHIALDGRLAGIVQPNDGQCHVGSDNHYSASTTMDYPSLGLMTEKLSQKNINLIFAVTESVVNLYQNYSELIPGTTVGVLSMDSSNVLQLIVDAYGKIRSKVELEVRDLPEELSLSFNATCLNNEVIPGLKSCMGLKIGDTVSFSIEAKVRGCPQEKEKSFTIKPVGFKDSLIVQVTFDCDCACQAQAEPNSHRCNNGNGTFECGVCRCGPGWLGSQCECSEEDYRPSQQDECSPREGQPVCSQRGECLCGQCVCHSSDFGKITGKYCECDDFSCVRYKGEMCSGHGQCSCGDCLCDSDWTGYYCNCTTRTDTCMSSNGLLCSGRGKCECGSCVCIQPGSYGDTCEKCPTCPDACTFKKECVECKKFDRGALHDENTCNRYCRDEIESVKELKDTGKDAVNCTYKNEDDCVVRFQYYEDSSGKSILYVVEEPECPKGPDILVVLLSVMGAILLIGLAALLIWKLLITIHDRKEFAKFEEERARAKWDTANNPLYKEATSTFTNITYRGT
Sequence of wild-type αVβ3 stably expressed in K562 cells (K562-αVβ3) (human) (P06756 31-1048, chain 1 of 2): as the sequence (P06756 31-1048, chain 1 of 2) above
Sequence of wild-type αVβ3 stably expressed in K562 cells (K562-αVβ3) (human) (P05106 27-788, chain 2 of 2, further chain): as the sequence (P05106 27-788 N339S, chain 2 of 2, further chain) above, with S313N counted along it

10th type III RGD-domain of wild-type fibronectin (wtFN10) (domain or fragment)
AP5 epitope expression (flow cytometry, HEK293T) [1]: 2 fold | fold increase of binding (MFI) in Mn2+ over Ca2+-Mg2+ [2]: 10 fold | fold increase of binding by the N339S mutation over wild-type αVβ3 [3]: 6 fold
